Experimental data: patent US10704064B2, “Recombinant yeast producing 3-hydroxypropionic acid and method for producing 3-hydroxypropionic acid using the same” (SK Innovation Co., Ltd., priority 2014, dated 2020)

B1: AADHvs: eutE type AADH of Vibrio sp. EJY3, GenBank AEX22176.1 (protein)
chain: MNEQEIAHAVENVLSKYTNVTAQNAEPVSYSSNASLENIVSQALAGNMVKQPETQTAPDLNSNIENIVSQILAENQAKPQSVQCQSANHGTTEYLGCFASMEEAISAASHAQVQYRHCTMGDRASFVKGIREVFTQDDVLEKISRMAVEETGMGNYADKLTKNRIAATKTPGIEDLTTSALSGDSGLTLTEFSAYGVIGSITPTTNPTETIINNSIGMLAAGNTVVYSPHPRSRNVSLVAVDLINRKLAELGAPANLVVTVLEPSIDNTNAMMNDPRVNMLVATGGPSIVKTVMSTGKKAIGAGAGNPPAVVDETANIEKAAKDIINGCAFDNNLPCIAEKEVIVVNEVADYLIHCMKKSGAYLLCDKQKIQQLQSLVLNEKGTGPNTSFVGKGARYILDKLNIQVSDDIKVILIETERNHPFVVHELMMPILPVVRVENVDEAIDLAIKVEHGNRHTAIMHSTNVEKLSKMARLIQTTIFVKNGPSYSGIGVGGEGHTTFTIAGPTGEGITSARSFARYRRCVMVEALNIR
modifications: AADHvs
B2: MCRcc: archaeal malonyl-CoA reductase of Candidatus Caldiarchaeum subterraneum, GenBank BAJ50751.1 (protein)
chain: MKTYSVAILGATGMVGQHYIRMLYRHPWFRITALTGKESVGRKYVEAVRGEAPEPPKEIAEMEVLPTDPKKVDADFVFSCLPTEAAREAEPKFAEAGFPVFSDAAAYRMEEDVPLIVPEINHDHLNMVHIQRKKRGWEGYIVTTPNCTTVGLVLPLQPLKQHLGVKKVIVTTMQAVSGAGYPGVASLSILGNVIPYISGEERKVETETAKILGRYGDGRFTHDSVEVHATCTRVPTLDGHMESIYLETAKPADEETVAELLAEYVSLPQELNLPTAPARPIVVRRELDRPQTRIDVDAGTVPGMSVSVGRIRVNGEKVRFISLSHNLIRGAAGGTILTAELARHMGLLGE
modifications: Candidatus Caldiarchaeum

Assays:
AADH = AADH in vitro enzyme activity assay from yeast cell lysates; format: biochemical; conditions: in vitro, expressed in yeast
Procedure: AADH activity was measured as described by Kozak et al. (2014, Metab. Eng. 21:46-59) by monitoring the reduction of NAD^+ at 340 nm at 30° C. The yeast cells for the cell lysates were collected, washed with water, and then resuspended into lysis buffer containing 100 mM Tris-HCl buffer (pH 7.5) and 1×EDTA free protease inhibitor cocktail (Roche). The cells were lysed with glass beads in a Precellys 24 homogenizer at 5500 rpm for 3×40 seconds and kept on ice between rounds. Lysates were centrifuged at 16 000 g for 20 min at 4° C. and supernatants were collected. The total protein concentration was determined using the Bradford method.
The enzyme assay reaction mixture contained 0.1 mM Coenzyme A, 50 mM CHES buffer (pH 9.5), 0.8 mM NAD^+, 0.2 mM DTT and 10 μL of cell extract in a total reaction volume of 200 μL. The reaction was started by adding 10 mM of freshly prepared acetaldehyde solution and reduction of NAD^+ was followed with a Thermo Konelab 20XT analyser.
Five AADH genes were originally chosen (i.e. ADHEpm, ADHEec, EUTec, EUTdz and LIN1129li) and transformed into the CEN.PK lab strain. These AADHs were expressed from a multicopy plasmid where they were under control of the TEF1 promoter.
Twenty additional novel AADH genes were chosen from the genome mining analyses to be evaluated for expression and enzyme activity in yeast.

[1] = system: S. cerevisiae VSK-128 ACS2 deletion strain; assay: AADH in vivo growth assay, ACS2 deletion strain on glucose-based agar plates; format: cell-based
Description: All copies of the ACS2 gene were deleted from the industrial S. cerevisiae VSK-128 strain in order to generate a strain with a defective PDH-bypass that was incapable of growth on glucose-based medium. Expression vectors carrying the 25 different AADH variants were then transformed into this ACS2 deletion strain to evaluate their ability to recover the growth of this strain on glucose.
There was a good correlation between the in vitro AADH enzyme activity assays and the in vivo growth recovery analyses.

[2] = SDS-PAGE expression levels of MCR constructs in E. coli lysate
Description: (§1) pBAT T7 promoter based expression constructs were made for four different archaeal MCRs, Metallosphaera sedula (MCRms), Sulfolobus tokodai (MCRst), Candidatus caldiarchaeum (MCRcc), and Sulfolobales archaeon (MCRsa1).

MCR = assay: archaeal MCR activity assay in E. coli lysates (microtitre plate); format: biochemical; conditions: E. coli cell lysate, NADPH or NADH
Procedure: as §1
Their activity was analyzed using the following assay conditions: 0.4 mM NAD(P)H; 0.15 mM Malonyl-CoA; Tris-HCl pH 7; 2 mM MgCl2. Assays on 20 times diluted lysates were performed in microtitre plate (MTP) format at RT. The oxidation of NADPHT or NADHT at A^365 in time was followed. […] However, the MCR activities were smaller than that measured for the tagged MCRca.

| Molecule | AADH activity (AADH) | recovery of the growth deficiency of the ACS2-deletion strain [1] | expression level [2] | MCR activity (MCR) |
| --- | --- | --- | --- | --- |
| B1 | shown to have AADH activity | capable of recovering the growth deficiency | – | – |
| B2 | – | – | could not be expressed in a soluble form | No activity on NADPH or NADH could be measured |
